Results taken from patent publication US20160264649A1.

How the values were obtained:
Assay in all cases: cell-based or functional assay
[1] = biological target: HIV-1 92RW008 Env (HIV-1)
[2] = biological target: HIV-1 92RW009 Env (HIV-1)
[3] = biological target: HIV-1 92RW021 Env (HIV-1)
[4] = biological target: HIV-1 92RW024 Env (HIV-1)
[5] = biological target: HIV-1 92RW026 Env (HIV-1)
[6] = biological target: HIV-1 92UG031 Env (HIV-1)
[7] = biological target: HIV-1 92UG037 Env (HIV-1)
[8] = biological target: HIV-1 93RW029 Env (HIV-1)
[9] = biological target: HIV-1 93UG077 Env (HIV-1)
[10] = biological target: HIV-1 94KE105 Env (HIV-1)
[11] = biological target: HIV-1 94UG103 Env (HIV-1)
[12] = biological target: HIV-1 MGRM-A-001 Env (HIV-1)
[13] = biological target: HIV-1 MGRM-A-002 Env (HIV-1)
[14] = biological target: HIV-1 MGRM-A-003 Env (HIV-1)
[15] = biological target: HIV-1 MGRM-A-004 Env (HIV-1)
[16] = biological target: HIV-1 MGRM-A-005 Env (HIV-1)
[17] = biological target: HIV-1 MGRM-A-006 Env (HIV-1)
[18] = biological target: HIV-1 MGRM-A-008 Env (HIV-1)
[19] = biological target: HIV-1 MGRM-A-009 Env (HIV-1)
[20] = biological target: HIV-1 MGRM-A-011 Env (HIV-1)
[21] = biological target: HIV-1 MGRM-A-012 Env (HIV-1)
[22] = biological target: HIV-1 MGRM-A-014 Env (HIV-1)
HIV-1 VLGCA1 Env (HIV-1) = biological target: HIV-1 VLGCA1 Env (HIV-1)
[23] = biological target: HIV-1 MGRM-F1-013 Env (HIV-1)

| Substance | neutralization IC50 [1] [µg/mL] | neutralization IC50 [2] [µg/mL] | neutralization IC50 [3] [µg/mL] | neutralization IC50 [4] [µg/mL] | neutralization IC50 [5] [µg/mL] | neutralization IC50 [6] [µg/mL] | neutralization IC50 [7] [µg/mL] | neutralization IC50 [8] [µg/mL] | neutralization IC50 [9] [µg/mL] | neutralization IC50 [10] [µg/mL] | neutralization IC50 [11] [µg/mL] | neutralization IC50 [12] [µg/mL] | neutralization IC50 [13] [µg/mL] | neutralization IC50 [14] [µg/mL] | neutralization IC50 [15] [µg/mL] | neutralization IC50 [16] [µg/mL] | neutralization IC50 [17] [µg/mL] | neutralization IC50 [18] [µg/mL] | neutralization IC50 [19] [µg/mL] | neutralization IC50 [20] [µg/mL] | other results |
| --- | --- | --- | --- | --- | --- | --- | --- | --- | --- | --- | --- | --- | --- | --- | --- | --- | --- | --- | --- | --- | --- |
| 1495_C14 (PGC14) (antibody) | 37 | > 50 | > 50 | > 50 | > 50 | > 50 | > 50 | 42 | > 50 | > 50 | > 50 | > 50 | > 50 | > 50 | > 50 | > 50 | > 50 | > 50 | > 50 | > 50 | neutralization IC50 [21]: > 50 µg/mL; neutralization IC50 [22]: > 50 µg/mL; neutralization IC50 (HIV-1 VLGCA1 Env (HIV-1)): > 50 µg/mL; IC50 (pseudovirus neutralization) [23]: 6 µg/mL |
| b12 (antibody) | 9.46 | > 50 | > 50 | > 50 | > 50 | > 50 | > 50 | > 50 | 47 | > 50 | 6.92 | > 50 | > 50 | > 50 | > 50 | 3.64 | 13.6 | > 50 | 4.34 | 4.01 | neutralization IC50 [21]: > 50 µg/mL; neutralization IC50 [22]: > 50 µg/mL; neutralization IC50 (HIV-1 VLGCA1 Env (HIV-1)): > 50 µg/mL; IC50 (pseudovirus neutralization) [23]: > 50 µg/mL |
